{"source": "paper doi:10.1101/2021.02.27.433148", "key": {"[1]": {"target": "human norovirus GII.4 Saga P-domain (native, Asn373) (human norovirus GII.4 Saga)", "assay": "native MS"}, "[2]": {"target": "human norovirus GII.4 Saga P-domain, fully deamidated at position 373 (iso-aspartate) (human norovirus GII.4 Saga)"}, "[3]": {"target": "murine norovirus (MNV) CR10 P-domain (murine norovirus, strain CR10) (UniProt Q80J94)", "assay": "native MS"}, "Q80J94": {"tested_on": "Q80J94", "assay": "SEC"}, "[4]": {"target": "murine norovirus (MNV) CW1 P-domain (murine norovirus, strain CW1) (UniProt Q80J94)", "assay": "NMR titration"}, "[5]": {"target": "murine norovirus (MNV) CW1 P-domain (murine norovirus, strain CW1) (UniProt Q80J94)", "assay": "NMR titration", "remark": "listed apart in the source"}, "[6]": {"target": "murine norovirus (MNV) CW1 P-domain (murine norovirus, strain CW1) (UniProt Q80J94)", "assay": "SEC"}, "[7]": {"target": "murine norovirus (MNV) CW1 P-domain (murine norovirus, strain CW1) (UniProt Q80J94)", "assay": "SEC", "remark": "listed apart in the source"}}, "note": "Where two headings read alike, the source gives them in different places."}
{"substance": "human norovirus GII.4 Saga P-domain (native, Asn373) (domain or fragment)", "values": [{"measurement": "stoichiometry N", "setting": "[1]", "value": 2}]}
{"substance": "human norovirus GII.4 Saga P-domain point mutant N373Q (domain or fragment)", "values": [{"measurement": "koff", "setting": "[2]", "value": "1.5e-06", "unit": "s⁻¹"}]}
{"substance": "murine norovirus (MNV) CR10 P-domain (from UniProt Q80J94 229-531) (domain or fragment)", "values": [{"measurement": "Kd", "setting": "[3]", "value": 32, "unit": "µM"}, {"measurement": "stoichiometry N", "setting": "[3]", "value": 2}]}
{"substance": "murine norovirus (MNV) CW1 P-domain", "values": [{"measurement": "kex (printed as dissociation rate constant kex, from SEC peak tailing)", "setting": "Q80J94", "value": 0.03, "unit": "s⁻¹"}]}
{"substance": "murine norovirus (MNV) CW1 P-domain (from UniProt Q80J94 225-541) (domain or fragment)", "values": [{"measurement": "Kd", "setting": "[4]", "value": 31, "unit": "µM"}, {"measurement": "dimer half-life t1/2", "setting": "[4]", "value": 17, "unit": "s"}, {"measurement": "Kd", "setting": "[5]", "value": 12.5, "unit": "µM"}, {"measurement": "koff", "setting": "[5]", "value": 0.035, "unit": "s⁻¹"}, {"measurement": "kon", "setting": "[5]", "value": 2800, "unit": "M⁻¹ s⁻¹"}, {"measurement": "Kd", "setting": "[6]", "value": 40, "unit": "µM"}, {"measurement": "stoichiometry N", "setting": "[6]", "value": 2}, {"measurement": "stoichiometry N", "setting": "[7]", "value": 2}]}
